Measurements reported in patent US20240294638A1.

Legend:
[1] = target: NKG2A on primary human NK cells (human) (UniProt P26715); test: cell-based or functional assay
[2] = target: human NKG2A and human CD94 expressed on transiently transfected CHO-S cells (human) (UniProt Q13241); test: blocking of PE-conjugated HLA-E pentamer binding to transiently transfected CHO-S cells, flow cytometry (percentage binding) [panel A hNKG2A]
[3] = target: cynomolgus NKG2A and cynomolgus CD94 expressed on transiently transfected CHO-S cells (cynomolgus) (UniProt Q68VD2); test: blocking of PE-conjugated HLA-E pentamer binding to transiently transfected CHO-S cells, flow cytometry (percentage binding) [panel B cNKG2A]
[4] = target: cynomolgus NKG2C and cynomolgus CD94 expressed on transiently transfected CHO-S cells (cynomolgus); test: blocking of PE-conjugated HLA-E pentamer binding to transiently transfected CHO-S cells, flow cytometry (percentage binding) [cont.), panel D cNKG2C]
I168S (Homo sapiens) = test: flow cytometry, CHO-S cells transiently transfected with NKG2A variant and CD94, AF647 goat anti-human IgG secondary (MFI) [cont.), panel monalizumab analogue (IgG4]
I168S (Homo sapiens), sequence (P26715 whole entry I168S): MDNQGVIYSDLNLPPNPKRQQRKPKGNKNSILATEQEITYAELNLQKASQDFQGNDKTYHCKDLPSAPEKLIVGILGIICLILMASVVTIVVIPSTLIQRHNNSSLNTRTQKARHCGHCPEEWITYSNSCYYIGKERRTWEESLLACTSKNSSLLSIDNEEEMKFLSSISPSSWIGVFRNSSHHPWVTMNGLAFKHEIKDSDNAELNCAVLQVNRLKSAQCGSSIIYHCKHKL

[5] = target: human NKG2A M189I / human CD94 heterodimer on CHO-S cells (human) (UniProt Q13241); test: as above
human NKG2A M189I / human CD94 heterodimer on CHO-S cells (human), sequence (chain, as listed by the source M189I M189I, chain 1 of 2): as the sequence (P26715 whole entry I168S) above, with S168I, M189I counted along it
human NKG2A M189I / human CD94 heterodimer on CHO-S cells (human), sequence (Q13241 whole entry, chain 2 of 2): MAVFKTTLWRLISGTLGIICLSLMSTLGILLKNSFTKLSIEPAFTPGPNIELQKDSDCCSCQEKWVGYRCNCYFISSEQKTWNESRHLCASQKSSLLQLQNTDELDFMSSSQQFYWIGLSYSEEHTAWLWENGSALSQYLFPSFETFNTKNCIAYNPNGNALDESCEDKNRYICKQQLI

[6] = target: human NKG2A S167A+I168S+S170L / human CD94 heterodimer on CHO-S cells (human) (UniProt Q13241); test: as above
human NKG2A S167A+I168S+S170L / human CD94 heterodimer on CHO-S cells (human), sequence (chain, as listed by the source S167A I168S S170L S167A I168S S170L, chain 1 of 2): as the sequence (P26715 whole entry I168S) above, with S167A, S170L counted along it
human NKG2A S167A+I168S+S170L / human CD94 heterodimer on CHO-S cells (human), sequence (Q13241 whole entry, chain 2 of 2): as the sequence (Q13241 whole entry, chain 2 of 2) above

[7] = target: human NKG2A S170L / human CD94 heterodimer on CHO-S cells (human) (UniProt Q13241); test: as above
human NKG2A S170L / human CD94 heterodimer on CHO-S cells (human), sequence (chain, as listed by the source S170L S170L, chain 1 of 2): as the sequence (P26715 whole entry I168S) above, with S168I, S170L counted along it
human NKG2A S170L / human CD94 heterodimer on CHO-S cells (human), sequence (Q13241 whole entry, chain 2 of 2): as the sequence (Q13241 whole entry, chain 2 of 2) above

[8] = target: human NKG2A and human CD94 expressed on transiently transfected CHO-S cells (human) (UniProt Q13241); test: as above
[9] = target: cynomolgus NKG2A and cynomolgus CD94 expressed on transiently transfected CHO-S cells (cynomolgus) (UniProt Q68VD2); test: flow cytometry, transiently transfected CHO-S cells, AF647 goat anti-human IgG secondary (MFI) [cont.), panel monalizumab analogue (IgG1-LALA]
[10] = target: cynomolgus NKG2C and cynomolgus CD94 expressed on transiently transfected CHO-S cells (cynomolgus); test: as above
[11] = target: human NKG2A and human CD94 expressed on transiently transfected CHO-S cells (human) (UniProt Q13241); test: as above

human NKG2A and human CD94 expressed on transiently transfected CHO-S cells (human), sequence (chain, as listed by the source, chain 1 of 2): as the sequence (P26715 whole entry I168S) above, with S168I counted along it
human NKG2A and human CD94 expressed on transiently transfected CHO-S cells (human), sequence (Q13241 whole entry, chain 2 of 2): as the sequence (Q13241 whole entry, chain 2 of 2) above
NKG2A on primary human NK cells (human), sequence (P26715 whole entry): as the sequence (P26715 whole entry I168S) above, with S168I counted along it

Substance | EC50 (ug/mL) of induced NK cell cytotoxicity, median (n = 6) [1] | IC50 (read off the curve) [2] | IC50 (read off the curve) [3] | IC50 (read off the curve) [4] | EC50 (read off the curve) (I168S (Homo sapiens)) | EC50 (read off the curve) [5] | EC50 (read off the curve) [6] | EC50 (read off the curve) [7] | EC50 (read off the curve) [8] | EC50 (read off the curve) [9] | EC50 (read off the curve) [10] | EC50 (read off the curve) [11]
Monalizumab Analogue (IgG4-S228P) (antibody) | 0.89 µg/mL | 200 ng/mL | 500 ng/mL | 800 ng/mL | 2 ng/mL | 2 ng/mL | 3 ng/mL | 2 ng/mL | 2 ng/mL |  |  | 
monalizumab analogue (IgG1-LALA) (antibody) |  |  |  |  |  |  |  |  |  | 10 ng/mL | 20 ng/mL | 8 ng/mL
